Legend:
CYP1A2 = target: T1, CYP1A2 (Homo sapiens, UniProt P05177); assay type: biochemical
T1 sequence (P05177 1-516): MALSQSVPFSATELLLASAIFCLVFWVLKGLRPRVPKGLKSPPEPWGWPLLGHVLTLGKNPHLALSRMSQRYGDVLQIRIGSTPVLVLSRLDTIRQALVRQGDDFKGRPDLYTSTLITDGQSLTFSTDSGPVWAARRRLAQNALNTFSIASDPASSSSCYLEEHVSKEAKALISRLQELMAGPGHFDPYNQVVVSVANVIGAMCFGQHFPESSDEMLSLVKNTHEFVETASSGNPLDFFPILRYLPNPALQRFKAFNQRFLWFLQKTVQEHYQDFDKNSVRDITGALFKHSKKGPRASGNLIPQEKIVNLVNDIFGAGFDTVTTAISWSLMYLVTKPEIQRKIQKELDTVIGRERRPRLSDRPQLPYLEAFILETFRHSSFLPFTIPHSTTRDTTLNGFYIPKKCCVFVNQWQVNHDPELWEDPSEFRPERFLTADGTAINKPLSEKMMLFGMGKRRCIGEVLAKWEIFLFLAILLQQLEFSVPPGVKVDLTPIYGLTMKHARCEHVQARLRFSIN
Description: (§1) Thus, we decided to probe the derivatives of methoxynaphthalene as CYP4A11 substrates. The simplest potential methoxynaphthalene-based P450 substrate is 6-methoxy-2-naphthoic acid, a close analog of naproxen, which is known to be metabolized by P450 enzymes. […] This molecule is apparently too small to be a CYP4A11 substrate. Thus, we searched commercially available derivatives of methoxynaphthalene to find a compound with a longer carboxylic acid chain substituent in the naphthalene ring. This search identified MONACRA (Figure 1) as a potential CYP4A11 substrate. […] We attempted to design a fluorimetric assay of its metabolism suitable for high-throughput studies in HLM.

CYP4A11 = target: T2, CYP4A11 (Homo sapiens, UniProt Q02928); experiment: Probing 6-methoxy-2-naphthoic acid as a P450 substrate (data not shown); assay type: biochemical
T2 sequence (Q02928 5-519): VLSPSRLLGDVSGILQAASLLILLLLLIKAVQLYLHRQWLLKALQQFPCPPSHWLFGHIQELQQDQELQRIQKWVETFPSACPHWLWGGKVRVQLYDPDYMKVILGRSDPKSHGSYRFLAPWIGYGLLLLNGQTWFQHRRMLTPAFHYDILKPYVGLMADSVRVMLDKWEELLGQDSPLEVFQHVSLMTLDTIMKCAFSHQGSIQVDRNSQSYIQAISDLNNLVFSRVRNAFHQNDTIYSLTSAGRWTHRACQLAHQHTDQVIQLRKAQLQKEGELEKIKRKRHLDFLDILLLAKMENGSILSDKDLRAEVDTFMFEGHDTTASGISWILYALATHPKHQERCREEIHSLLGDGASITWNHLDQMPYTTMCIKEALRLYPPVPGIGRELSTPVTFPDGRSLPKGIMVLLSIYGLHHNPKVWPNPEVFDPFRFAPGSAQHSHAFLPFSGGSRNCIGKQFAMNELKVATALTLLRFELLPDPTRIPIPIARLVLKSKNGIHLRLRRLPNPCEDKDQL
Description: as §1

[1] = substrate: COc1ccc2cc(C=CC(=O)O)ccc2c1; experiment: MONACRA demethylation by recombinant CYP2C8 in Supersomes, high-throughput fluorimetric assay; assay type: biochemical, human; details: other: CYP2C8 Supersomes; Michaelis–Menten fit
Method: (§2) Based on these observations, we developed a high-throughput automated assay applicable for studying SSPs of MONACRA metabolism by microsomal P450 enzymes. In this procedure, the incubation mixtures containing an NADPH-generating system and various substrate concentrations are placed in a multiwell plate and preincubated at 30°C in a thermostated shaker. The reaction is started by adding microsomal suspension to the final concentration of 0.3–1 mg/ml of microsomal protein or 0.02–0.1 µM of recombinant P450 enzymes in Supersomes. Following the incubation for 20 min at 30°C, the reaction is quenched by adding trichloroacetic acid (final concentration […]). After supplementing the wells with Na-glycine buffer (pH 10.4, final concentration 2.1 M), the plates are subjected to scanning the fluorescence spectra with excitation at 375 nm. This assay, which is described in detail in Materials and Methods, allows reliable detection of the concentrations of HONACRA as low as 0.1 µM.
(§3) We used the high-throughput activity assay described above to probe MONACRA metabolism by 16 human microsomal P450 enzymes, namely CYP1A2, CYP2A6, CYP2B6, CYP2C8, CYP2C9, CYP2C19, CYP2D6, CYP2E1, CYP2J2, CYP3A4, CYP3A5, CYP4A11, CYP4F2, CYP4F3A, CYP4F3B, and CYP4F12. […]

[2] = substrate: COc1ccc2cc(C=CC(=O)O)ccc2c1; experiment: MONACRA demethylation by recombinant CYP1A2 in Supersomes, high-throughput fluorimetric assay; assay type: biochemical, human; details: other: CYP1A2 Supersomes; substrate inhibition equation; ± = confidence interval P=0.05
Method: as §2, §3

Molecule: COc1ccc2cc(C(=O)O)ccc2c1 [6-methoxy-2-naphthoic acid]
- O-demethylation by P450 enzymes (CYP1A2): undergoes O-demethylation catalyzed predominantly by CYP1A2
- metabolism by CYP4A11 (CYP4A11): not metabolized by CYP4A11

B1: CYP2C8 (Homo sapiens) (protein)
chain: MEPFVVLVLCLSFMLLFSLWRQSCRRRKLPPGPTPLPIIGNMLQIDVKDICKSFTNFSKVYGPVFTVYFGMNPIVVFHGYEAVKEALIDNGEEFSGRGNSPISQRITKGLGIISSNGKRWKEIRRFSLTTLRNFGMGKRSIEDRVQEEAHCLVEELRKTKASPCDPTFILGCAPCNVICSVVFQKRFDYKDQNFLTLMKRFNENFRILNSPWIQVCNNFPLLIDCFPGTHNKVLKNVALTRSYIREKVKEHQASLDVNNPRDFIDCFLIKMEQEKDNQKSEFNIENLVGTVADLFVAGTETTSTTLRYGLLLLLKHPEVTAKVQEEIDHVIGRHRSPCMQDRSHMPYTDAVVHEIQRYSDLVPTGVPHAVTTDTKFRNYLIPKGTTIMALLTSVLHDDKEFPNPNIFDPGHFLDKNGNFKKSDYFMPFSAGKRICAGEGLARMELFLFLTTILQNFNLKSVDDLKNLNTTAVTKGIVSLPPSYQICFIPV
notes: purchased Gentest (Huntsville, AL), now a part of Discovery Life Sciences lot 81760; host or cells: insect cells, recombinant baculovirus
- Km [1]: 456 ± 188 µM
- kcat [1]: 0.0267 ± 0.0117 s⁻¹

B2: CYP1A2 (Homo sapiens) (protein)
chain: ALSQSVPFSATELLLASAIFCLVFWVLKGLRPRVPKGLKSPPEPWGWPLLGHVLTLGKNPHLALSRMSQRYGDVLQIRIGSTPVLVLSRLDTIRQALVRQGDDFKGRPDLYTSTLITDGQSLTFSTDSGPVWAARRRLAQNALNTFSIASDPASSSSCYLEEHVSKEAKALISRLQELMAGPGHFDPYNQVVVSVANVIGAMCFGQHFPESSDEMLSLVKNTHEFVETASSGNPLDFFPILRYLPNPALQRFKAFNQRFLWFLQKTVQEHYQDFDKNSVRDITGALFKHSKKGPRASGNLIPQEKIVNLVNDIFGAGFDTVTTAISWSLMYLVTKPEIQRKIQKELDTVIGRERRPRLSDRPQLPYLEAFILETFRHSSFLPFTIPHSTTRDTTLNGFYIPKKCCVFVNQWQVNHDPELWEDPSEFRPERFLTADGTAINKPLSEKMMLFGMGKRRCIGEVLAKWEIFLFLAILLQQLEFSVPPGVKVDLTPIYGLTMKHARCEHVQARLRFSIN
notes: purchased Gentest (Supersomes), now a part of Discovery Life Sciences; CYP1A2 is not in the lot list; host or cells: insect cells, recombinant baculovirus
- Km [2]: 161 ± 34 µM
- kcat [2]: 0.733 ± 0.1 s⁻¹
